{"source": "patent US20200407442A1", "about": "(WUXI BIOLOGICS IRELAND, published 2020)", "key": {"[1]": {"target": "T1, Variant 5: xPro1.FL-x5 (human; mouse)", "T1 construct": "Chimeric full-length LAG-3 on transfected 293F cells", "T1 chain": "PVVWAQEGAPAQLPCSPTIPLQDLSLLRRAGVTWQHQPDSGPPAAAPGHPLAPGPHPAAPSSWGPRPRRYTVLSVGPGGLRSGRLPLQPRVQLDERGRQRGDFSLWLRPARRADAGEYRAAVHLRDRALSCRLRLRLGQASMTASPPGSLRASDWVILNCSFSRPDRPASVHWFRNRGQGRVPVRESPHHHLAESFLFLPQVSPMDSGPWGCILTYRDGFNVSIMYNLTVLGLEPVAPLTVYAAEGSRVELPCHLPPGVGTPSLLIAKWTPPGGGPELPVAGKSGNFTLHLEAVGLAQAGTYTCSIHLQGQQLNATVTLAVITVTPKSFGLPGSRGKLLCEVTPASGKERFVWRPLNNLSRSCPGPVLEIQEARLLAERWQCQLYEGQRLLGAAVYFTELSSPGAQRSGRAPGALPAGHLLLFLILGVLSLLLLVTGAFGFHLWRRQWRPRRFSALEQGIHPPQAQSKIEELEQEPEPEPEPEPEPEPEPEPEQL", "assay": "FACS, 1 ug/mL antibody, transfected 293F cells", "method": "(§1) The 10 variants were cloned into pcDNA3 vector and used for 293F cell transfection. Briefly, 293F cells were diluted to a density of 1×10⁶ cells/mL with FreeStyle 293F medium and aliquots of 3 mL/well were added to 24-well plate. Transfections were performed using 293fectin reagent (Life Technologies). For each transfection, 3 μg of DNA were diluted in 150 μOpti-MEM I-reduced serum medium (Life Technologies), and then combined with 6μL 293fectin reagent pre-diluted in 150 μL Opti-MEM I reduced serum medium. The DNA/[…] mixture was allowed to stand at 25° C. for 20 min before being added to the culture. The transfected cells were analyzed by flow cytometry at 48 h post-transfection.\n(§2) Binding of antibodies to chimeric LAG-3 variants or full length human/mouse LAG-3 was analyzed by flow cytometry. Briefly, 1 μg/mL antibodies were incubated with chimeric LAG-3-expressing transfected 293F cells for 1 hour at 4° C., and then incubated with 3 μg/mL goat anti-human IgG Fc R-PE (Jackson) for 40 min at 4° C. Cells were analyzed with flow cytometer."}, "[2]": {"target": "T2, Variant 6: xPro1.FL-x6 (human; mouse)", "T2 construct": "Chimeric full-length LAG-3 on transfected 293F cells", "T2 chain": "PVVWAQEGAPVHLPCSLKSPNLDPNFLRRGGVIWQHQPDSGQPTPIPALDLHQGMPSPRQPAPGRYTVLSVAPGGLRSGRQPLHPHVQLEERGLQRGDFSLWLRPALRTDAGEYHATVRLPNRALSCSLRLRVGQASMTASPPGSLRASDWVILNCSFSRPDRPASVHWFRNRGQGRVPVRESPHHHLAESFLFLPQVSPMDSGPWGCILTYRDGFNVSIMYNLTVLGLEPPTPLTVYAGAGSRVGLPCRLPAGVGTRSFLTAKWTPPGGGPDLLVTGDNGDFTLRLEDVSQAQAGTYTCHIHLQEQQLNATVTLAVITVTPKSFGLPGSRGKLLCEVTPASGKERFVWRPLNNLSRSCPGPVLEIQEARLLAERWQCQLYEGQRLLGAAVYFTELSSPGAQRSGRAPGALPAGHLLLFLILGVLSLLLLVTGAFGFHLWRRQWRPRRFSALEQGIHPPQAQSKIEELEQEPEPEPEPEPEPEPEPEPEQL", "assay": "FACS, 1 ug/mL antibody, transfected 293F cells", "method": "as §1, §2"}, "[3]": {"target": "T3, Variant 10: xPro1.FL-x10 (human; mouse)", "T3 construct": "Chimeric full-length LAG-3 on transfected 293F cells", "T3 chain": "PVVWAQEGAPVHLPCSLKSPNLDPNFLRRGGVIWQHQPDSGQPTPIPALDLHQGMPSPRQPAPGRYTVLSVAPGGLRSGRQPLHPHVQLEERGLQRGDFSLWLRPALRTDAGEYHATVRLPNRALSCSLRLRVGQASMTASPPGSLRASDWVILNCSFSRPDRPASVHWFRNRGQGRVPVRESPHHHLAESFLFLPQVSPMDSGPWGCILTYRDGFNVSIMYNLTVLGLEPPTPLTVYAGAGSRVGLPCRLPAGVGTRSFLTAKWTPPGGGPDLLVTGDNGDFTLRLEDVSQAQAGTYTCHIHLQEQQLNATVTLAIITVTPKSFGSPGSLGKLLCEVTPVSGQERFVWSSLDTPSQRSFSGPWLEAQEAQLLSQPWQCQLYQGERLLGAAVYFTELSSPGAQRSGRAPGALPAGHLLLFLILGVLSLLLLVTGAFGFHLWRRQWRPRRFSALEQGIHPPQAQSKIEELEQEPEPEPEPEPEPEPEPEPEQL", "assay": "FACS, 1 ug/mL antibody, transfected 293F cells", "method": "as §1, §2"}, "[4]": {"target": "T4, full-length human LAG-3 on cells (human, UniProt P18627 23-525)", "T4 construct": "Expressed on Flp-In-293, CHO or 293F transfectants; also called hPro1.FL; cell surface human LAG-3", "T4 sequence": "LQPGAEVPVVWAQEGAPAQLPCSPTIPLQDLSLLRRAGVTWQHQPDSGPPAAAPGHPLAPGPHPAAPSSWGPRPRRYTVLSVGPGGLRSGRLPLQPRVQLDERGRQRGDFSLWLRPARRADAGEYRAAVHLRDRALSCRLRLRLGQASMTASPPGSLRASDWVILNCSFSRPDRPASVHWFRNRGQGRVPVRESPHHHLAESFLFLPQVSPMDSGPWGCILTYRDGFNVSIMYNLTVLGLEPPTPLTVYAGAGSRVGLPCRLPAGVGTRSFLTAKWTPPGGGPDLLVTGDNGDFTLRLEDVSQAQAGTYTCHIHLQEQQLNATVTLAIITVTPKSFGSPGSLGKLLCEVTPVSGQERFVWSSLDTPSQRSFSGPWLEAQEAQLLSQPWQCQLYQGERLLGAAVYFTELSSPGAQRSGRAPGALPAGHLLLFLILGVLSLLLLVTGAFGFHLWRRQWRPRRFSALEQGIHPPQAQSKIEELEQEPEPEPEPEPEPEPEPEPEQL", "assay": "FACS, 1 ug/mL antibody, transfected 293F cells", "method": "as §1, §2"}, "[5]": {"target": "T5, human CD4 (human, UniProt P01730 26-390, limits assumed)", "T5 construct": "also called human CD4 protein", "assay": "ELISA on plate-coated human CD4, OD450", "method": "Cross-reactivity to human CD4 was measured by ELISA. Plates were coated with human CD4 at 1μg/mL overnight at 4° C. After blocking and washing, 1 μg/mL of LAG-3 antibodies were added to the plates and incubated at room temperature for 1 h. The plates were then washed and subsequently incubated with corresponding secondary antibody for 45 min. After washing, TMB substrate was added and the color reaction was stopped by 2 M HCl. The absorbance at 450 nm was read using a microplate reader."}}, "data": [{"binder": "1.53.3-uAb-IgG4k (antibody, V domains shown, Fully human antibody from OMT rats; IgG4 kappa by its name) VH: QVQLQQWGAGLLKPSETLSLTCGVYGGSFSGYYWSWIRQPPGMGLEWIGEINHRGNTNYNPSLKSRVTISEDTSKNQFSLRLSSVTAADTAVYFCTRGEDYSDYDYYGDFWGQGTLVTVSS VL: EIVLTQSPATLSLSQGERATLSCRASQSISSYLAWYQQKPGQAPRLLIYAASNRATGIPARFSGSGSGTDFTLTISSLEPEDFAIYYCQQRSNWPLTFGGGTKVEIK", "values": [{"measurement": "MFI", "setting": "[1]", "result": 6260}, {"measurement": "PE+ %", "setting": "[1]", "result": 97.1, "unit": "%"}, {"measurement": "MFI", "setting": "[2]", "result": 59.9}, {"measurement": "PE+ %", "setting": "[2]", "result": 1.86, "unit": "%"}, {"measurement": "MFI", "setting": "[3]", "result": 42.3}, {"measurement": "PE+ %", "setting": "[3]", "result": 1.98, "unit": "%"}, {"measurement": "MFI", "setting": "[4]", "result": 6540}, {"measurement": "PE+ %", "setting": "[4]", "result": 96.8, "unit": "%"}, {"measurement": "binding result", "setting": "[5]", "result": "no binding (tested: 66.7 nM)"}]}, {"binder": "3.40.19-uAb-IgG4L (antibody, V domains shown, Fully human antibody from OMT rats; IgG4 lambda by its name; also called 3.40.19-uAb-hIgG4L) VH: QLQLQESGPGLVKPSETLSLTCTVSGDSISSTSYYWGWIRQPPGKGLEWIGSFYYSGSTYYNPSLKSRVTISVDTSKNQFSLKLNSVTAADTAVYYCARMQLWSYDVDVWGQGTTVTVSS VL: QSALTQPASVSGSPGQSITISCTGTSSDVGGYDYVAWYQQHPGKVPKLMIYDVSERPSGVSNRFSGSKSGNTASLTISGLQAEDEADYYCSSYTSTTTLVVFGGGTKLSVL", "values": [{"measurement": "MFI", "setting": "[1]", "result": 7070}, {"measurement": "PE+ %", "setting": "[1]", "result": 75.9, "unit": "%"}, {"measurement": "MFI", "setting": "[2]", "result": 44.1}, {"measurement": "PE+ %", "setting": "[2]", "result": 0.674, "unit": "%"}, {"measurement": "MFI", "setting": "[3]", "result": 68.5}, {"measurement": "PE+ %", "setting": "[3]", "result": 0.988, "unit": "%"}, {"measurement": "MFI", "setting": "[4]", "result": 6520}, {"measurement": "PE+ %", "setting": "[4]", "result": 83.5, "unit": "%"}, {"measurement": "binding result", "setting": "[5]", "result": "no binding (tested: 66.7 nM)"}]}]}
